Test results from paper PMC12273574, “Biochemical and structural characterization of a GNAT superfamily protein acetyltransferase from Helicobacter pylori” (The Journal of Biological Chemistry, 2025).

Columns and labels:
Assay in all cases: purified protein
purified protein [1] = substrate: CC(=O)SCCNC(=O)CCNC(=O)[C@H](O)C(C)(C)COP(=O)(O)OP(=O)(O)OC[C@H]1O[C@@H](n2cnc3c(N)ncnc32)[C@H](O)[C@@H]1OP(=O)(O)O; conditions: 50 mM lysine, 5-50 μM 14C-ACO, 800 nM enzyme, pH 8.0, 30 °C; labelled compound; pH 8.0; 30.0 °C
purified protein [2] = substrate: CC(=O)NCCCC[C@H](N)C(=O)O; conditions: 14C-ACO, 800 nM enzyme; Nα-amino group acetylated; unit μM as printed beside mM for the Nα-acetyl isomer
purified protein [3] = substrate: NCCCC[C@H](N)C(=O)O; conditions: 50 μM 14C-ACO, 1-50 mM lysine, 800 nM enzyme, pH 8.0, 30 °C; pH 8.0; 30.0 °C

B1: HP0935 (Helicobacter pylori 26695) (protein)
chain: MTIKVFSPKYPTELEEFYAERIADNPLGFIQRLDLLPSISGFVQKLREHGGEFFEMREGNKLIGICGLNPINQTEAELCKFHINSAYQSQGLGQKLYESVEKYAFIKGYTKISLHVSKSQIKACNLYQKLGFVHIKEEDCVVELGEETLIFPTLFMEKILS
Km (purified protein [1]): 21.44 µM | Km (purified protein [2]): 26.71 µM | Km (purified protein [3]): 31310 µM
